A short description of series [1]: Ketose 3-epimerase activity ratio (T70/T50) at reaction temperature of 70° C. to 50° C. The class given is biochemical. The following applies: crude recombinant enzyme; ratio of activity at 70° C. to activity at 50° C., 10 min reaction. The protocol:
An enzyme having higher heat resistance than an amino acid substitution-free wild type enzyme can be obtained by introducing mutation into the gene of the ketose 3-epimerase of the present invention and substituting the corresponding amino acid residue with another amino acid residue by a site-directed mutagenesis operation to prepare various amino acid-substituted mutants. The heat resistance is evaluated by two indices, that is, a ketose 3-epimerase activity ratio (T70/T50) at the reaction temperatures of 70° C. to 50° C. and a residual activity after incubation at 60° C. for one hour.
Heat resistance of the present enzyme (crude recombinant enzyme) and the crude enzyme of the control enzyme was investigated by measuring an activity at 70° C. and an activity at 50° C. under the reaction conditions (10 minutes) used for determining the optimum temperature in the above 2 shown in Table 2 and finding their ratio (T70/T50).

The nature of series [2]: Thermal stability: residual activity after incubation at 60° C. for one hour. The series is classed as biochemical. The settings on record: crude recombinant enzyme; after incubation at 60° C. for 1 hour. The protocol:
Thermal stability of the enzyme was investigated by measuring the activity of the enzyme after incubation at 60° C. for one hour and finding its relative activity supposing that the activity at 60° C. under the reaction conditions (10 minutes) used for determining the optimum temperature in the above 2 shown in Table 2 was 100. As heat treatment conditions, the crude enzyme solution, a buffer (50 mM tris-HCl, pH 7.5), and 2 mM MgCl2 were used to give a total amount of 200 p1 and after retaining at 60° C. for one hour, the reaction mixture was cooled for 10 minutes in ice water. The residual enzyme activity was then measured by the conventional method.
The activity of each of the present enzyme (crude recombinant enzyme) and the crude enzyme of the control enzyme after incubation at 60° C. for 1 hour was measured and a relative activity of it was determined supposing that the activity at 60° C. under the reaction conditions (10 minutes) for determining the optimum temperature in the above 2 shown in Table 2 is 100. The relative activity was used as a heat resistance index of the enzyme. As heat treatment conditions, the crude enzyme solution, a buffer (50 mM tris-HCl, pH 7.5), and 2 mM MgCl2 were used to give a total amount of 200 p1 and after retaining at 60° C. for one hour, the reaction mixture was cooled for 10 minutes in ice water. The residual enzyme activity was measured by the conventional method.

The results in this text go back to patent publication US20210395718A1, “NOVEL KETOSE 3-EPIMERASE” (NATIONAL UNIVERSITY CORPORATION KAGAWA UNIVERSITY, priority 2018, published 2021).

B1: Ketose 3-epimerase mutant 7: amino acid-substituted mutant of SEQ ID NO: 1 (protein)
chain: MKIGCHGLVWTGRFDAEGIRYSVQKTKEAGFDLIEFPLMDPFSFDVATAKSALAEHGLSVSASLGLSEATDVSSEDPAIVKAGEELLNRALDVLAELGATDFCGVIYSAMKKYMEPATEQGLSNSKAAVGRVVDRAAGLGINVSLEVVNRYETNVLNTGRQALSYLSDVKRPNLGVHLDTYHMNIEESDMFSPVLDTAEVLKYVHIGESHRGYLGTGSVDFDNFFKALGRIGYDGPVVFESFSSAVVAPDLSRMLGIWRNLWADNEELGAHANAFIRDKLTAIKTIELH
modifications: Arthrobacter histidinolovorans
B1: the T70/T50 in series [1] is listed as 2.03. In addition, the “Residual activity (%)” value in series [2] came to 83.1%.

B2: Ketose 3-epimerase mutant 14: amino acid-substituted mutant of SEQ ID NO: 1 (protein)
chain: MKIGCHGLVWTGRFDAEGIRYSVQKTKEAGFDLIEFPLMDPFSFDVATAKSALAEHGLTASASLGLSEATDVSSEDPAIVKAGEELLNRALDVLAELGATDFCGVIYSAMKKYMEPATEQGLSNSKAAVGRVVDRAAGLGINVSLEVVNRYETNVLNTGRQALSYLSDVKRPNLGVHLDTYHMNIEESDMFSPVLDTAEVLKYVHIGESHRGYLGTGSVDFDNFFKALGRIGYDGPVVFESFSSAVVAPDLSRMLGIWRNLWADNEELGAHANAFIRDKLTAIKTIELH
modifications: Arthrobacter histidinolovorans
For B2, the T70/T50 in series [1] is listed as 1.91. In series [2], the “Residual activity (%)” value came out at 79.1%.

B3: Ketose 3-epimerase mutant 16: amino acid-substituted mutant of SEQ ID NO: 1 (protein)
chain: MKIGCHGLVWTGRFDAEGIRYSVQKTKEAGFDLIEFPLMDPFSFDVATAKSALAEHGLSVSASLGLSEATDVSSEDPAIVKAGEELLNRALDVLAELGATEFCGVIYSAMKKYMEPATEQGLSNSKAAIGRVVDRAAGLGINVSLEVVNRYETNVLNTGRQALSYLSDVKRPNLGVHLDTYHMNIEESDMFSPVLDTAEALKYVHIGESHRGYLGTGSVDFDNFFKALGRIGYDGPVVFESFSSAVVAPDLSRMLGIWRNLWADNEELGAHANAFIRDKLTAIKTIELH
modifications: Arthrobacter histidinolovorans
As for B3, the T70/T50 in series [1] stood at 1.89. Also, the “Residual activity (%)” value in series [2] came out at 54.0%.

B4: Ketose 3-epimerase mutant 9: amino acid-substituted mutant of SEQ ID NO: 1 (protein)
chain: MKIGCHGLVWTGRFDAEGIRYSVQKTKEAGFDLIEFPLMDPFSFDVATAKSALAEHGLSVSASLGLSEATDVSSEDPAIVKAGEELLNRALDVLAELGATDFCGVIYSAMKKYMEPATEQGLSNSKAAVGRVVDRAAGLGINVSLEVVNRYETNVLNTGRQALSYLSDVKRPNLGVHLDTYHMNIEESDMFSPVLDTAEALKYVHIGESHRGYLGTGSVDFDNFFKALGRIGYDGPVVFESFSSAVVAPDLSRMLGIWRNLWADNEELGAHANAFIRDKLTAIKTIELH
modifications: Arthrobacter histidinolovorans
Regarding B4, the T70/T50 in series [1] came out at 2.01. In addition, the “Residual activity (%)” value in series [2] is on record as 65.6%.

B5: Ketose 3-epimerase mutant 12: amino acid-substituted mutant of SEQ ID NO: 1 (protein)
chain: MKIGCHGLVWTGRFDAEGIRYSVQKTKEAGFDLIEFPLMDPFSFDVATAKSALAEHGLTASASLGLSEATDVSSEDPAIVKAGEELLNRALDVLAELGATDFCGVIYSAMKKYMEPATEQGLSNSKAAIGRVVDRAAGLGINVSLEVVNRYETNVLNTGRQALSYLSDVKRPNLGVHLDTYHMNIEESDMFSPVLDTAEALKYVHIGESHRGYLGTGNVDFDNFFKALGRIGYDGPVVFESFSSAVVAPDLSRMLGIWRNLWADNEELGAHANAFIRDKLTAIKTIELH
modifications: Arthrobacter histidinolovorans
For the molecule B5, the T70/T50 in series [1] turned out to be 1.94. For the same molecule, in series [2], the “Residual activity (%)” value is reported as 90.5%.

B6: Ketose 3-epimerase mutant 10: amino acid-substituted mutant of SEQ ID NO: 1 (protein)
chain: MKIGCHGLVWTGRFDAEGIRYSVQKTKEAGFDLIEFPLMDPFSFDVATAKSALAEHGLSVSASLGLSEATDVSSEDPAIVKAGEELLNRALDVLAELGATDFCGVIYSAMKKYMEPATEQGLSNSKAAVGRVVDRAAGLGINVSLEVVNRYETNVLNTGRQALSYLSDVKRPNLGVHLDTYHMNIEESDMFSPVLDTAEALKYVHIGESHRGYLGTGNVDFDNFFKALGRIGYDGPVVFESFSSAVVAPDLSRMLGIWRNLWADNEELGAHANAFIRDKLTAIKTIELH
modifications: Arthrobacter histidinolovorans
For B6, in series [1], the T70/T50 was determined as 1.98. In addition, the “Residual activity (%)” value in series [2] is 79.5%.

B7: Ketose 3-epimerase mutant 15: amino acid-substituted mutant of SEQ ID NO: 1 (protein)
chain: MKIGCHGLVWTGRFDAEGIRYSVQKTKEAGFDLIEFPLMDPFSFDVATAKSALAEHGLSVSASLGLSEATDVSSEDPAIVKAGEELLNRALDVLAELGATEFCGVIYSAMKKYMEPATEQGLSNSKAAVGRVVDRAAGLGINVSLEVVNRYETNVLNTGRQALSYLSDVKRPNLGVHLDTYHMNIEESDMFSPVLDTAEVLKYVHIGESHRGYLGTGSVDFDNFFKALGRIGYDGPVVFESFSSAVVAPDLSRMLGIWRNLWADNEELGAHANAFIRDKLTAIKTIELH
modifications: Arthrobacter histidinolovorans
B7: the T70/T50 in series [1] was 1.90. Besides, the “Residual activity (%)” value in series [2] was 89.3%.

B8: Ketose 3-epimerase mutant 8: amino acid-substituted mutant of SEQ ID NO: 1 (protein)
chain: MKIGCHGLVWTGRFDAEGIRYSVQKTKEAGFDLIEFPLMDPFSFDVATAKSALAEHGLTASASLGLSEATDVSSEDPAIVKAGEELLNRALDVLAELGATDFCGVIYSAMKKYMEPATEQGLSNSKAAIGRVVDRAAGLGINVSLEVVNRYETNVLNTGRQALSYLSDVKRPNLGVHLDTYHMNIEESDMFSPVLDTAEVLKYVHIGESHRGYLGTGNVDFDNFFKALGRIGYDGPVVFESFSSAVVAPDLSRMLGIWRNLWADNEELGAHANAFIRDKLTAIKTIELH
modifications: Arthrobacter histidinolovorans
Turning to B8, the T70/T50 in series [1] is recorded as 2.03. The “Residual activity (%)” value in series [2] came out at 115.3%.

B9: Ketose 3-epimerase mutant 17: amino acid-substituted mutant of SEQ ID NO: 1 (protein)
chain: MKIGCHGLVWTGRFDAEGIRYSVQKTKEAGFDLIEFPLMDPFSFDVATAKSALAEHGLTASASLGLSEATDVSSEDPAIVKAGEELLNRALDVLAELGATEFCGVIYSAMKKYMEPATEQGLSNSKAAVGRVVDRAAGLGINVSLEVVNRYETNVLNTGRQALSYLSDVKRPNLGVHLDTYHMNIEESDMFSPVLDTAEVLKYVHIGESHRGYLGTGSVDFDNFFKALGRIGYDGPVVFESFSSAVVAPDLSRMLGIWRNLWADNEELGAHANAFIRDKLTAIKTIELH
modifications: Arthrobacter histidinolovorans
With B9, the T70/T50 in series [1] was determined as 1.89. Moreover, the “Residual activity (%)” value in series [2] is recorded as 62.3%.

B10: Ketose 3-epimerase mutant 11: amino acid-substituted mutant of SEQ ID NO: 1 (protein)
chain: MKIGCHGLVWTGRFDAEGIRYSVQKTKEAGFDLIEFPLMDPFSFDVATAKSALAEHGLTASASLGLSEATDVSSEDPAIVKAGEELLNRALDVLAELGATDFCGVIYSAMKKYMEPATEQGLSNSKAAIGRVVDRAAGLGINVSLEVVNRYETNVLNTGRQALSYLSDVKRPNLGVHLDTYHMNIEESDMFSPVLDTAEALKYVHIGESHRGYLGTGSVDFDNFFKALGRIGYDGPVVFESFSSAVVAPDLSRMLGIWRNLWADNEELGAHANAFIRDKLTAIKTIELH
modifications: Arthrobacter histidinolovorans
In the case of B10, the T70/T50 in series [1] amounted to 1.95. The “Residual activity (%)” value in series [2] came to 68.6%.

B11: Ketose 3-epimerase mutant 13: amino acid-substituted mutant of SEQ ID NO: 1 (protein)
chain: MKIGCHGLVWTGRFDAEGIRYSVQKTKEAGFDLIEFPLMDPFSFDVATAKSALAEHGLTASASLGLSEATDVSSEDPAIVKAGEELLNRALDVLAELGATDFCGVIYSAMKKYMEPATEQGLSNSKAAIGRVVDRAAGLGINVSLEVVNRYETNVLNTGRQALSYLSDVKRPNLGVHLDTYHMNIEESDMFSPVLDTAEVLKYVHIGESHRGYLGTGSVDFDNFFKALGRIGYDGPVVFESFSSAVVAPDLSRMLGIWRNLWADNEELGAHANAFIRDKLTAIKTIELH
modifications: Arthrobacter histidinolovorans
For the molecule B11, in series [1], the T70/T50 worked out at 1.94. Further, in series [2], the “Residual activity (%)” value stood at 83.7%.
